Data published in the supplement of paper PMC10567573.

B1: MGC16075 (parent)
chain: AGSRQALSFEVPPCNYDPEKWIQ

Variants of: B1
Assay: protein stability index of a GFP-peptide fusion (GPS, HEK-293T) (PSI 1-6); higher = more stable
Conditions: c terminus: native
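Further: lentivirally expressed fusions sorted by FACS into six bins by GFP to DsRed ratio, PSI derived from sequencing read proportions per bin multiplied by bin number.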

Going from AGSRQILSFEVPPCNYDPEKWIQ [A6I] to AGSRQTLSFEVPPCNYDPEKWIQ [A6T], the protein stability index falls from 3.05 to 1.53.

Compared with AGSRQHLSFEVPPCNYDPEKWIQ [A6H], AGSRQELSFEVPPCNYDPEKWIQ [A6E] is higher in protein stability index: 1.71 for the first, 1.92 for the second.

First: AGSRQSLSFEVPPCNYDPEKWIQ [A6S]
Second: AGSRQNLSFEVPPCNYDPEKWIQ [A6N]
The protein stability index of the first is lower: 1.6 for the first, 2.16 for the second.

Compared with AGSRQLLSFEVPPCNYDPEKWIQ [A6L], AGSRQQLSFEVPPCNYDPEKWIQ [A6Q] is lower in protein stability index: 3.71 for the first, 1.99 for the second.

First: AGSRQWLSFEVPPCNYDPEKWIQ [A6W]
Second: AGSRQVLSFEVPPCNYDPEKWIQ [A6V]
The protein stability index of the first is higher: 3.24 for the first, 2.59 for the second.

Compared with AGSRQCLSFEVPPCNYDPEKWIQ [A6C], AGSRQFLSFEVPPCNYDPEKWIQ [A6F] is higher in protein stability index: 2.03 for the first, 2.46 for the second.

Compared with AGSRQGLSFEVPPCNYDPEKWIQ [A6G], AGSRQKLSFEVPPCNYDPEKWIQ [A6K] is higher in protein stability index: 1.03 for the first, 2.47 for the second.

Going from AGSRQRLSFEVPPCNYDPEKWIQ [A6R] to AGSRQPLSFEVPPCNYDPEKWIQ [A6P], the protein stability index falls from 2.29 to 1.56.

Going from AGSRQDLSFEVPPCNYDPEKWIQ [A6D] to AGSRQMLSFEVPPCNYDPEKWIQ [A6M], the protein stability index rises from 2.91 to 2.98.

Going from AGSRQAASFEVPPCNYDPEKWIQ [L7A] to AGSRQAFSFEVPPCNYDPEKWIQ [L7F], the protein stability index rises from 2.09 to 3.58.

Going from AGSRQAHSFEVPPCNYDPEKWIQ [L7H] to AGSRQAWSFEVPPCNYDPEKWIQ [L7W], the protein stability index rises from 2.33 to 2.77.

Compared with AGSRQAESFEVPPCNYDPEKWIQ [L7E], AGSRQAGSFEVPPCNYDPEKWIQ [L7G] is lower in protein stability index: 3.23 for the first, 2.06 for the second.

Going from AGSRQADSFEVPPCNYDPEKWIQ [L7D] to AGSRQACSFEVPPCNYDPEKWIQ [L7C], the protein stability index rises from 2.45 to 2.75.

Compared with AGSRQANSFEVPPCNYDPEKWIQ [L7N], AGSRQAMSFEVPPCNYDPEKWIQ [L7M] is lower in protein stability index: 2.72 for the first, 1.86 for the second.

Going from AGSRQAQSFEVPPCNYDPEKWIQ [L7Q] to AGSRQAPSFEVPPCNYDPEKWIQ [L7P], the protein stability index falls from 2.57 to 1.26.

Going from AGSRQATSFEVPPCNYDPEKWIQ [L7T] to AGSRQAYSFEVPPCNYDPEKWIQ [L7Y], the protein stability index falls from 2.42 to 1.76.

First: AGSRQASSFEVPPCNYDPEKWIQ [L7S]
Second: AGSRQAVSFEVPPCNYDPEKWIQ [L7V]
The protein stability index of the first is higher: 2.11 for the first, 1.78 for the second.

Going from AGSRQAKSFEVPPCNYDPEKWIQ [L7K] to AGSRQAISFEVPPCNYDPEKWIQ [L7I], the protein stability index rises from 1.82 to 2.07.

Compared with AGSRQARSFEVPPCNYDPEKWIQ [L7R], AGSYQALSFEVPPCNYDPEKWIQ [R4Y] is lower in protein stability index: 2.5 for the first, 1.22 for the second.

Going from AGSRQALSFGVPPCNYDPEKWIQ [E10G] to AGSRQALSFCVPPCNYDPEKWIQ [E10C], the protein stability index rises from 1.83 to 2.27.

Compared with AGSRQALSFHVPPCNYDPEKWIQ [E10H], AGSRQALSFDVPPCNYDPEKWIQ [E10D] is lower in protein stability index: 3.09 for the first, 2.6 for the second.

Going from AGSRQALSFIVPPCNYDPEKWIQ [E10I] to AGSRQALSFAVPPCNYDPEKWIQ [E10A], the protein stability index rises from 2.29 to 3.25.

Going from AGSRQALIFEVPPCNYDPEKWIQ [S8I] to AGSRQALDFEVPPCNYDPEKWIQ [S8D], the protein stability index rises from 1.59 to 2.32.

Compared with AGSRQALRFEVPPCNYDPEKWIQ [S8R], AGSRQALWFEVPPCNYDPEKWIQ [S8W] is higher in protein stability index: 1.89 for the first, 2.05 for the second.

First: AGSRQALLFEVPPCNYDPEKWIQ [S8L]
Second: AGSRQALGFEVPPCNYDPEKWIQ [S8G]
The protein stability index of the first is higher: 1.98 for the first, 1.83 for the second.

First: AGSRQALVFEVPPCNYDPEKWIQ [S8V]
Second: AGSRQALTFEVPPCNYDPEKWIQ [S8T]
The protein stability index of the first is lower: 1.54 for the first, 3.31 for the second.

Going from AGSRQALNFEVPPCNYDPEKWIQ [S8N] to AGSRQALEFEVPPCNYDPEKWIQ [S8E], the protein stability index rises from 1.91 to 3.24.

First: AGSRQALFFEVPPCNYDPEKWIQ [S8F]
Second: AGSRQALYFEVPPCNYDPEKWIQ [S8Y]
The protein stability index of the first is lower: 2.92 for the first, 3.25 for the second.

Going from AGSRQALQFEVPPCNYDPEKWIQ [S8Q] to AGSRQALCFEVPPCNYDPEKWIQ [S8C], the protein stability index rises from 1.26 to 2.6.

Compared with AGSRQALHFEVPPCNYDPEKWIQ [S8H], AGSRQALKFEVPPCNYDPEKWIQ [S8K] is higher in protein stability index: 2.05 for the first, 2.09 for the second.

Compared with AGSRQALPFEVPPCNYDPEKWIQ [S8P], AGSRQALAFEVPPCNYDPEKWIQ [S8A] is lower in protein stability index: 1.91 for the first, 1.79 for the second.

Compared with AGSRQALSLEVPPCNYDPEKWIQ [F9L], AGSRQALSHEVPPCNYDPEKWIQ [F9H] is higher in protein stability index: 2.48 for the first, 2.86 for the second.

Going from AGSRQALSVEVPPCNYDPEKWIQ [F9V] to AGSRQALSTEVPPCNYDPEKWIQ [F9T], the protein stability index rises from 2.57 to 2.79.

Going from AGSRQALSREVPPCNYDPEKWIQ [F9R] to AGSRQALSDEVPPCNYDPEKWIQ [F9D], the protein stability index rises from 2.78 to 3.05.

Going from AGSRQALSYEVPPCNYDPEKWIQ [F9Y] to AGSRQALSQEVPPCNYDPEKWIQ [F9Q], the protein stability index rises from 2 to 3.05.

Compared with AGSRQALSWEVPPCNYDPEKWIQ [F9W], AGSRQALSGEVPPCNYDPEKWIQ [F9G] is higher in protein stability index: 2.5 for the first, 3.14 for the second.

First: AGSRQALSIEVPPCNYDPEKWIQ [F9I]
Second: AGSRQALSNEVPPCNYDPEKWIQ [F9N]
The protein stability index of the first is lower: 2.07 for the first, 3.75 for the second.

Going from AGSRQALSEEVPPCNYDPEKWIQ [F9E] to AGSRQALSKEVPPCNYDPEKWIQ [F9K], the protein stability index falls from 3.49 to 3.19.

Going from AGSRQALSCEVPPCNYDPEKWIQ [F9C] to AGSRQALSPEVPPCNYDPEKWIQ [F9P], the protein stability index rises from 2.57 to 3.09.

Compared with AGSRQALSAEVPPCNYDPEKWIQ [F9A], AGSRQALSSEVPPCNYDPEKWIQ [F9S] is higher in protein stability index: 2.63 for the first, 2.77 for the second.

First: AGSRQALSMEVPPCNYDPEKWIQ [F9M]
Second: AGSRYALSFEVPPCNYDPEKWIQ [Q5Y]
The protein stability index of the first is lower: 2.29 for the first, 2.68 for the second.

Compared with AGSRMALSFEVPPCNYDPEKWIQ [Q5M], AGSRHALSFEVPPCNYDPEKWIQ [Q5H] is higher in protein stability index: 1.72 for the first, 1.82 for the second.

First: AGSRGALSFEVPPCNYDPEKWIQ [Q5G]
Second: AGSRVALSFEVPPCNYDPEKWIQ [Q5V]
The protein stability index of the first is lower: 2.03 for the first, 2.35 for the second.

Compared with AGSRKALSFEVPPCNYDPEKWIQ [Q5K], AGSRWALSFEVPPCNYDPEKWIQ [Q5W] is higher in protein stability index: 1.3 for the first, 4.32 for the second.

First: AGSRFALSFEVPPCNYDPEKWIQ [Q5F]
Second: AGSREALSFEVPPCNYDPEKWIQ [Q5E]
The protein stability index of the first is higher: 3.99 for the first, 3.29 for the second.

Compared with AGSRNALSFEVPPCNYDPEKWIQ [Q5N], AGSRAALSFEVPPCNYDPEKWIQ [Q5A] is lower in protein stability index: 1.82 for the first, 1.8 for the second.

Compared with AGSRPALSFEVPPCNYDPEKWIQ [Q5P], AGSRRALSFEVPPCNYDPEKWIQ [Q5R] is higher in protein stability index: 1.47 for the first, 1.84 for the second.

Going from AGSRDALSFEVPPCNYDPEKWIQ [Q5D] to AGSRTALSFEVPPCNYDPEKWIQ [Q5T], the protein stability index rises from 1.52 to 2.12.

Variant AGSRSALSFEVPPCNYDPEKWIQ [Q5S] has a protein stability index of 1.48.
